The text below walks through data of PMC8289115, “Liquid–liquid phase separation of full-length prion protein initiates conformational conversion in vitro” (The Journal of Biological Chemistry, 2021).

The data set deals with the molecule itself. Briefly: SDS-PAGE and Western blotting of aged gels collected by centrifugation. A general note: In western blotting, separated proteins are transferred to a membrane and probed.

B1: full-length human recombinant prion protein (residues 23-231) (natural protein)
chain: not shown
notes: also called rPrP; hu-PrP; source: E. coli DH5α, purified
Regarding B1, the binding result was “binds”.
